Values joined by “and” are separate entries in the source; they are usually repeats but may differ in a detail not shown here. Identical values can stand only once.

Holding throughout (type): binding
Assay [1] can be described thus: Probe fluorescence ratio response to arachidonic acid relative to ADIFAB2. The conditions noted are these: arachidonic acid; response relative to ADIFAB2. The gist of the method:
(§1)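 Fluorescently labeled rat intestinal FABP variants were read at two emission wavelengths, near the unbound maximum (about 420 to 480 nm) and the FFA-bound maximum (about 495 to 580 nm). R = Fλ1/Fλ2 after subtracting probe-free intensity; ΔR = R+agent − R0, normalized to ADIFAB2 (rI-FABP-L72A).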

A short description of assay [2]: Probe fluorescence ratio response to oleic acid relative to ADIFAB2. The conditions noted are these: response relative to ADIFAB2. The gist of the method:
as §1

Assay [3] in a line: Probe fluorescence ratio response to linoleic acid relative to ADIFAB2. The conditions noted are these: response relative to ADIFAB2. The gist of the method:
as §1

The nature of assay [4]: Probe fluorescence ratio response to linolenic acid relative to ADIFAB2. The conditions noted are these: response relative to ADIFAB2. The gist of the method:
as §1

A short description of assay [5]: Probe fluorescence ratio response to palmitic acid relative to ADIFAB2. The conditions noted are these: response relative to ADIFAB2. The gist of the method:
as §1

B1: 36H1, 72A (protein, listed as Rattus norvegicus)
chain: AFDGTWKVDRNENYEKFMEKMGINVVKRKLGAHDNHKLTITQEGNKFTVKESSNFRNIDVVFELGVDFAYSAADGTELTGTWTMEGNKLVGKFKRVDNGKELIAVREISGNELIQTYTYEGVEAKRIFKKE
modifications: PEPTIDE (1)...(131) wild-type rat intestinal fatty acid binding protein
In the case of B1, in assay [1], the “DR/DR AA” value is listed as 0.76. Besides, the “DR/DR OA” value in assay [2] came out at 0.77. In addition, the “DR/DR LA” value in assay [3] is 0.81. For the same molecule, the “DR/DR LNA” value in assay [4] is given as 0.86. In addition, the “DR/DR PA” value in assay [5] was 0.40.

B2: 36K, 72A (protein, listed as Rattus norvegicus)
chain: AFDGTWKVDRNENYEKFMEKMGINVVKRKLGAHDNKKLTITQEGNKFTVKESSNFRNIDVVFELGVDFAYSAADGTELTGTWTMEGNKLVGKFKRVDNGKELIAVREISGNELIQTYTYEGVEAKRIFKKE
modifications: PEPTIDE (1)...(131) wild-type rat intestinal fatty acid binding protein
Take B2: the “DR/DR AA” value in assay [1] stood at 0.38. Moreover, the “DR/DR OA” value in assay [2] came to 0.41. Besides, in assay [3], the “DR/DR LA” value is 0.38. For the same molecule, the “DR/DR LNA” value in assay [4] was 0.42. In addition, the “DR/DR PA” value in assay [5] was 0.16.

B3: 36P, 72A (protein, listed as Rattus norvegicus)
chain: AFDGTWKVDRNENYEKFMEKMGINVVKRKLGAHDNPKLTITQEGNKFTVKESSNFRNIDVVFELGVDFAYSAADGTELTGTWTMEGNKLVGKFKRVDNGKELIAVREISGNELIQTYTYEGVEAKRIFKKE
modifications: PEPTIDE (1)...(131) wild-type rat intestinal fatty acid binding protein
Regarding B3, the “DR/DR AA” value in assay [1] came out at 0.32. In assay [2], the “DR/DR OA” value was determined as 0.14. Further, the “DR/DR LA” value in assay [3] is −7.45. For the same molecule, in assay [4], the “DR/DR LNA” value was 0.36. Besides, the “DR/DR PA” value in assay [5] is recorded as 0.31.

B4: 36S, 72A (protein, listed as Rattus norvegicus)
chain: AFDGTWKVDRNENYEKFMEKMGINVVKRKLGAHDNSKLTITQEGNKFTVKESSNFRNIDVVFELGVDFAYSAADGTELTGTWTMEGNKLVGKFKRVDNGKELIAVREISGNELIQTYTYEGVEAKRIFKKE
modifications: PEPTIDE (1)...(131) wild-type rat intestinal fatty acid binding protein
Turning to B4, the “DR/DR AA” value in assay [1] was 0.49. Besides, the “DR/DR OA” value in assay [2] was determined as 0.43. For the same molecule, the “DR/DR LA” value in assay [3] came to 0.50. Also, the “DR/DR LNA” value in assay [4] is on record as 0.50. In addition, the “DR/DR PA” value in assay [5] is recorded as 0.42.

B5: 36Q, 72A (protein, listed as Rattus norvegicus)
chain: AFDGTWKVDRNENYEKFMEKMGINVVKRKLGAHDNQKLTITQEGNKFTVKESSNFRNIDVVFELGVDFAYSAADGTELTGTWTMEGNKLVGKFKRVDNGKELIAVREISGNELIQTYTYEGVEAKRIFKKE
modifications: PEPTIDE (1)...(131) wild-type rat intestinal fatty acid binding protein
Turning to B5, the “DR/DR AA” value in assay [1] is 1.20 and 0.837. For the same molecule, in assay [2], the “DR/DR OA” value was 1.12 and 0.792. The “DR/DR LA” value in assay [3] was 1.26 and 0.927. Also, in assay [4], the “DR/DR LNA” value was 1.28 and 0.880. The “DR/DR PA” value in assay [5] is 0.81 and 0.777.

B6: 102N, 72A (protein, listed as Rattus norvegicus)
chain: AFDGTWKVDRNENYEKFMEKMGINVVKRKLGAHDNLKLTITQEGNKFTVKESSNFRNIDVVFELGVDFAYSAADGTELTGTWTMEGNKLVGKFKRVDNGKENIAVREISGNELIQTYTYEGVEAKRIFKKE
modifications: PEPTIDE (1)...(131) wild-type rat intestinal fatty acid binding protein
Regarding B6, the “DR/DR AA” value in assay [1] was 0.64. Further, the “DR/DR OA” value in assay [2] is 0.69. Besides, the “DR/DR LA” value in assay [3] is given as 0.67. In addition, in assay [4], the “DR/DR LNA” value was 0.71. Besides, the “DR/DR PA” value in assay [5] is on record as −1.09.

B7: 36L, 72A wt (protein, listed as Rattus norvegicus)
chain: AFDGTWKVDRNENYEKFMEKMGINVVKRKLGAHDNLKLTITQEGNKFTVKESSNFRNIDVVFELGVDFAYSAADGTELTGTWTMEGNKLVGKFKRVDNGKELIAVREISGNELIQTYTYEGVEAKRIFKKE
modifications: PEPTIDE (1)...(131) wild-type rat intestinal fatty acid binding protein
B7: the “DR/DR AA” value in assay [1] is recorded as 1.25. In addition, the “DR/DR OA” value in assay [2] is 1.25. Also, the “DR/DR LA” value in assay [3] is recorded as 1.21. In assay [4], the “DR/DR LNA” value is given as 1.00. Besides, the “DR/DR PA” value in assay [5] is given as 1.13.

B8: 36I1, 72A (protein, listed as Rattus norvegicus)
chain: AFDGTWKVDRNENYEKFMEKMGINVVKRKLGAHDNIKLTITQEGNKFTVKESSNFRNIDVVFELGVDFAYSAADGTELTGTWTMEGNKLVGKFKRVDNGKELIAVREISGNELIQTYTYEGVEAKRIFKKE
modifications: PEPTIDE (1)...(131) wild-type rat intestinal fatty acid binding protein
For B8, the “DR/DR AA” value in assay [1] amounted to 1.01. Moreover, in assay [2], the “DR/DR OA” value came out at 0.95. In addition, in assay [3], the “DR/DR LA” value was 1.11. In addition, the “DR/DR LNA” value in assay [4] is given as 1.13. Further, the “DR/DR PA” value in assay [5] is 0.80.

B9: 36R, 72A (protein, listed as Rattus norvegicus)
chain: AFDGTWKVDRNENYEKFMEKMGINVVKRKLGAHDNRKLTITQEGNKFTVKESSNFRNIDVVFELGVDFAYSAADGTELTGTWTMEGNKLVGKFKRVDNGKELIAVREISGNELIQTYTYEGVEAKRIFKKE
modifications: PEPTIDE (1)...(131) wild-type rat intestinal fatty acid binding protein
Turning to B9, the “DR/DR AA” value in assay [1] is listed as 1.04. For the same molecule, the “DR/DR OA” value in assay [2] came to 1.14. For the same molecule, in assay [3], the “DR/DR LA” value was 1.17. Also, the “DR/DR LNA” value in assay [4] worked out at 1.17. Moreover, the “DR/DR PA” value in assay [5] is on record as 0.70.

B10: 36M, 72A (protein, listed as Rattus norvegicus)
chain: AFDGTWKVDRNENYEKFMEKMGINVVKRKLGAHDNMKLTITQEGNKFTVKESSNFRNIDVVFELGVDFAYSAADGTELTGTWTMEGNKLVGKFKRVDNGKELIAVREISGNELIQTYTYEGVEAKRIFKKE
modifications: PEPTIDE (1)...(131) wild-type rat intestinal fatty acid binding protein
Take B10: the “DR/DR AA” value in assay [1] was determined as 1.23. For the same molecule, the “DR/DR OA” value in assay [2] was found to be 1.12. Moreover, the “DR/DR LA” value in assay [3] was found to be 1.10. Also, the “DR/DR LNA” value in assay [4] is 1.08. For the same molecule, the “DR/DR PA” value in assay [5] is 0.97.

B11: 36N, 72A (protein, listed as Rattus norvegicus)
chain: AFDGTWKVDRNENYEKFMEKMGINVVKRKLGAHDNNKLTITQEGNKFTVKESSNFRNIDVVFELGVDFAYSAADGTELTGTWTMEGNKLVGKFKRVDNGKELIAVREISGNELIQTYTYEGVEAKRIFKKE
modifications: PEPTIDE (1)...(131) wild-type rat intestinal fatty acid binding protein
Take B11: the “DR/DR AA” value in assay [1] came out at 0.47. In assay [2], the “DR/DR OA” value came to 0.38. In addition, the “DR/DR LA” value in assay [3] worked out at 0.47. In addition, the “DR/DR LNA” value in assay [4] was 0.42. Also, the “DR/DR PA” value in assay [5] was 0.39.

The values are drawn from patent publication US20060257938A1, “Method of screening for drugs that block ligand binding to a lipid binding protein” (priority 2005, published 2006).
